Measurements published in IntAct's records for PubMed 24183572.

B1: Gamma-crystallin S (Homo sapiens), P22914 (parent)
chain: MSKTGTKITFYEDKNFQGRRYDCDCDCADFHTYLSRCNSIKVEGGTWAVYERPNFAGYMYILPQGEYPEYQRWMGLNDRLSSCRAVHLPSGGQYKIQIFEKGDFSGQMYETTEDCPSIMEQFHMREIHSCKVLEGVWIFYELPNYRGRQYLLDKKEYRKPIDWGAASPAVQSFRRIVE
partner: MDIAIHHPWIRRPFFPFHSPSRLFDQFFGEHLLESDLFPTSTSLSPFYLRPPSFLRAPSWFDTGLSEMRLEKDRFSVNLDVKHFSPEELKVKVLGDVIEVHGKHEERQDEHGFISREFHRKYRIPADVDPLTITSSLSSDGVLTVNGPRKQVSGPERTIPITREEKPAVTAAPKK

Variants of: B1
Conditions: with cryab_human CRYAB

effect of a mutation on the interaction	Variant
increasing interaction strength	MSKTGTKITFYEDKNFQVRRYDCDCDCADFHTYLSRCNSIKVEGGTWAVYERPNFAGYMYILPQGEYPEYQRWMGLNDRLSSCRAVHLPSGGQYKIQIFEKGDFSGQMYETTEDCPSIMEQFHMREIHSCKVLEGVWIFYELPNYRGRQYLLDKKEYRKPIDWGAASPAVQSFRRIVE [G18V]
